Measurements: publication PMC6021441, “Structural basis of the correct subunit assembly, aggregation, and intracellular degradation of nylon hydrolase” (Scientific Reports, 2018)
Where a chain is given by its changes, count along the chain named.

Tests used:
Experiment in all cases: crystal structure; sitting-drop vapor diffusion, ammonium sulfate, 0.1 M HEPES pH 7.5, 0.2 M NaCl, 25% glycerol; space group C222_(1), two molecules (A/B dimer) in the asymmetric unit, tetramer by the crystallographic two-fold axis
Conditions in all cases: both partners purified
[1] = biological target: T1, NylCp2-G^122Y^130A^36Q^263 alpha subunit (D122G/H130Y/D36A/E263Q) (Arthrobacter, UniProt Q79F77 1-266, D122G | H130Y | D36A | E263Q)
T1 construct: NylCp2 alpha subunit with four substitutions; also called α subunit of NylCp2-G^122Y^130A^36Q^263; source: E. coli JM109, purified with the beta subunit as the active enzyme
T1 sequence (looked up): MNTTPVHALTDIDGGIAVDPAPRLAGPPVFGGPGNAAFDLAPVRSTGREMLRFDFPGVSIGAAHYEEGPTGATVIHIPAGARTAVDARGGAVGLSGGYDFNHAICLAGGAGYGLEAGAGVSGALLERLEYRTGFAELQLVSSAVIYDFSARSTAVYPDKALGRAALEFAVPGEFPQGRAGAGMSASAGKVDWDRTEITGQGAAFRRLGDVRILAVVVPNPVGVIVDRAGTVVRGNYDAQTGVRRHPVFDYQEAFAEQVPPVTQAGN

[2] = biological target: T2, NylCp2-K^122 alpha subunit (D122K) (Arthrobacter, UniProt Q79F77 1-266, D122K)
T2 construct: NylCp2 alpha subunit with D122K; also called α subunit of NylCp2-K^122; source: E. coli JM109, purified with the beta subunit as the active enzyme
T2 sequence (looked up): T1 sequence (looked up) with A36D, G122K, Y130H, Q263E

[3] = biological target: T3, NylCp2-G^122Y^130 alpha subunit (D122G/H130Y) (Arthrobacter, UniProt Q79F77 1-266, D122G | H130Y)
T3 construct: NylCp2 alpha subunit with D122G and H130Y; also called α subunit of NylCp2-G^122Y^130; source: E. coli JM109, purified with the beta subunit as the active enzyme
T3 sequence (looked up): T1 sequence (looked up) with A36D, Q263E

[4] = biological target: T4, NylCp2 alpha subunit (27 kDa), wild type (Arthrobacter, UniProt Q79F77 1-266)
T4 construct: NylCp2, alpha subunit made by autocleavage of the 355-residue precursor between Asn266 and Thr267; also called α subunit; source: E. coli JM109, purified with the beta subunit as the active enzyme
T4 sequence (looked up): T1 sequence (looked up) with A36D, G122D, Y130H, Q263E

[5] = biological target: T5, NylCp2-R^122 alpha subunit (D122R) (Arthrobacter, UniProt Q79F77 1-266, D122R)
T5 construct: NylCp2 alpha subunit with D122R; also called α subunit of NylCp2-R^122; source: E. coli JM109, purified with the beta subunit as the active enzyme
T5 sequence (looked up): T1 sequence (looked up) with A36D, G122R, Y130H, Q263E

[6] = biological target: T6, NylCp2-V^122 alpha subunit (D122V) (Arthrobacter, UniProt Q79F77 1-266, D122V)
T6 construct: NylCp2 alpha subunit with D122V; also called α subunit of NylCp2-V^122; source: E. coli JM109, purified with the beta subunit as the active enzyme
T6 sequence (looked up): T1 sequence (looked up) with A36D, G122V, Y130H, Q263E

Measured: binding result

B1: NylCp2 beta subunit (9 kDa) (domain or fragment, Arthrobacter, UniProt Q79F77 267-355, looked up)
chain: TTISAIVTNVRMSPVELNQFAKQVHSSMHRGIQPFHTDMDGDTLFAVTTDEIDLPTTPGSSRGRLSVNATALGAIASEVMWDAVLEAGK
notes: NylCp2, beta subunit made by autocleavage of the 355-residue precursor between Asn266 and Thr267; the same in the wild type and in the mutants crystallised here (all their substitutions lie in the alpha subunit); also called β subunit; source: E. coli JM109, purified with the alpha subunit as the active enzyme
binds: all assays above
